The values below come from FireProtDB (doi:10.1074/jbc.m005861200).

For this series the following is noted: pH 5, DSC, Unknown, reversible: yes, whole UniProt chain shown; for denaturant midpoint (higher = more stable): 25 °C, GdnHCl; for Tm / heat capacity change of unfolding / unfolding enthalpy (calorimetric): Thermal.
[1] abbreviates: Hydrogenobacter thermophilus (strain DSM 6534 / IAM 12695 / TK-6).
[2] abbreviates: Pseudomonas aeruginosa (strain ATCC 15692 / DSM 22644 / CIP 104116 / JCM 14847 / LMG 12228 / 1C / PRS 101 / PAO1).
[3] abbreviates: Pseudomonas aeruginosa (strain ATCC 15692 / DSM 22644 / CIP 104116 / JCM 14847 / LMG 12228 / 1C / PRS 101 / PAO1), 47.3 °C.

B1: Cytochrome c-552 wild type, P15452 (protein)
chain: MKKFLLVAVVGLAGITFANEQLAKQKGCMACHDLKAKKVGPAYADVAKKYAGRKDAVDYLAGKIKKGGSGVWGSVPMPPQNVTDAEAKQLAQWILSIK
B1: under setting [1], the “denaturant midpoint (higher = more stable)” value amounted to 4.47 M, the midpoint of thermal melting (Tm) was 87.5 °C, the “heat capacity change of unfolding” value turned out to be 0.9 kcal/mol/K and the “unfolding enthalpy (calorimetric)” value was found to be 36.7 kcal/mol.

B2: Cytochrome c-551 wild type, P00099 (protein)
chain: MKPYALLSLLATGTLLAQGAWAEDPEVLFKNKGCVACHAIDTKMVGPAYKDVAAKFAGQAGAEAELAQRIKNGSQGVWGPIPMPPNAVSDDEAQTLAKWVLSQK
Regarding B2, under setting [2], the “denaturant midpoint (higher = more stable)” value was found to be 2.16 M, the Tm came out at 47.3 °C, the “heat capacity change of unfolding” value is 0.72 kcal/mol/K and the “unfolding enthalpy (calorimetric)” value stood at 37.7 kcal/mol. In addition, under setting [3], the Tm was determined as 47.3 °C and the “heat capacity change of unfolding” value turned out to be 1.07 kcal/mol/K.
